Paper doi:10.1101/2022.04.06.487260, “The purified recombinant FAT domain of the Focal Adhesion Kinase does not bind directly to recombinant Talin or MBD2 in vitro” (bioRxiv, 2022)

Biological target: T1, Talin F2F3 (206-405, C336S) (UniProt Q9Y490 206-405, C336S)
T1 construct: Talin (head 1-433, rod 434-2541), F2 and F3 lobes of the FERM domain, residues 206-405; gene codon optimised and synthesised; the purification (beads before and after cleavage, elution as a 25 kDa protein) describes the cleaved protein; also called Talin206-405; Talin F2F3 head
Assay: NMR titration; 1H-15N HSQC; 90 μM 15N-labelled FAT incubated with Talin at molar ratios of 1:0.5, 1:1 and 1:2; 25 °C
Details: both partners purified

T1 sequence (Q9Y490 206-405 C336S): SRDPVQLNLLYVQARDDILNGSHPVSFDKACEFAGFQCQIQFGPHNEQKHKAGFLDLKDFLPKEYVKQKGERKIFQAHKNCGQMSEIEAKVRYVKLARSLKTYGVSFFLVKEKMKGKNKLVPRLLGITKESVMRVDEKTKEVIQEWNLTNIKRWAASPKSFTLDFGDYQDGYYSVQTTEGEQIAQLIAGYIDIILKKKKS

B1: FAT domain of human FAK (892-1052) (domain or fragment, UniProt Q05397 892-1052, looked up)
chain: SSPADSYNEGVKLQPQEISPPPTANLDRSNDKVYENVTGLVKAVIEMSSKIQPAPPEEYVPMVKEVGLALRTLLATVDETIPLLPASTHREIEMAQKLLNSDLGELINKMKLAQQYVMTSLQQEYKKQMLTAAHALAVDAKNLLDVIDQARLKMLGQTRPH
notes: focal adhesion kinase (FAK), human, residues 892-1052: FAT domain with N-terminal residues preceding the four-helix bundle (922-1049); Expressed as GST fusion from pGex-6P2 and released from the beads with 3C protease; 15N-labelled (M9 medium with 15N-NH4Cl) for the NMR experiments; also called FAT892-1052; FAK FAT; source: E. coli BL21, purified (Glutathione Sepharose 4B, 3C protease, Superdex …)
Kd: > 100 µM
